Where two headings read alike, the source gives them in different places. *1 amine or outer side, *2 acyl side, *3 side chain or, on linkers, in order; H or OH if unused. [ ]: non-standard residue; d: D form. The star is where a group is joined. trans‑Cha(4-CH2NH2) = trans-(4-aminomethyl)cyclohexylalanine, O=C([C@H](C[C@H]1CC[C@H](CN[*:3])CC1)N[*:1])[*:2]; Gly(1-amidinopiperidin-4-yl) = N=C(N)N1CCC([C@H](N)C(=O)O)CC1; DTPA = O=C(O)CN(CCN(CC(=O)O)CC(=O)O)CCN(CC(=O)O)CC(=O)*; Phe(4-guanidino) = N=C(N)Nc1ccc(C[C@H](N)C(=O)O)cc1; homoAla(PipAm) = (N-amidinopiperidinyl)homoalanine; Ala(PipAm) = (N-amidinopiperidinyl)alanine; Dmt = Cc1cc(O)cc(C)c1C[C@H](N)C(=O)O; mTyr = N[C@@H](Cc1cccc(O)c1)C(=O)O; Ala(cPr) = N[C@@H](CC1CC1)C(=O)O; AzeCA = azetidinecarboxylic acid; tBuAla = CC(C)(C)C[C@H](N)C(=O)O; Cha = N[C@@H](CC1CCCCC1)C(=O)O; Chg = N[C@H](C(=O)O)C1CCCCC1; Tle = CC(C)(C)[C@H](N)C(=O)O; Aba(Apy) = not defined here; PipGly = piperidinylglycine; NHOH = ON*
B1: DTPA-DLys-Pro-(4-Gu)Phe-Arg-Pro-Tyr-Ile-Leu-OH (peptide)
peptide: KPXRPYIL
modifications: N-terminal DTPA; D-Lys at 1; (4-Gu)Phe [Phe(4-guanyl)] at 3 (X)
notes: also called Compound I; DTPA-DLys-Pro-Phe(4-guanyl)-Arg-Pro-Tyr-Ile-Leu-OH
B2: DTPA-DLys-Pro-Gly(PipAm)-Arg-Pro-Tyr-tBuGly-tBuAla-OH (peptide)
peptide: {DTPA}-[dK]P[Gly(1-amidinopiperidin-4-yl)]RPY[Tle][tBuAla]-OH
SMILES: CC(C)(C)C[C@H](NC(=O)[C@@H](NC(=O)[C@H](Cc1ccc(O)cc1)NC(=O)[C@@H]1CCCN1C(=O)[C@H](CCCNC(=N)N)NC(=O)[C@@H](NC(=O)[C@@H]1CCCN1C(=O)[C@@H](CCCCN)NC(=O)CN(CCN(CCN(CC(=O)O)CC(=O)O)CC(=O)O)CC(=O)O)C1CCN(C(=N)N)CC1)C(C)(C)C)C(=O)O
B3: DTPA-DTyr-Glu-Asn-Lys-Pro-Gly(PipAm)-Arg-Pro-Tyr-tBuGly-Cha-OH (peptide)
peptide: {DTPA}-[dY]ENKP[Gly(1-amidinopiperidin-4-yl)]RPY[Tle][Cha]-OH
SMILES: CC(C)(C)[C@H](NC(=O)[C@H](Cc1ccc(O)cc1)NC(=O)[C@@H]1CCCN1C(=O)[C@H](CCCNC(=N)N)NC(=O)[C@@H](NC(=O)[C@@H]1CCCN1C(=O)[C@H](CCCCN)NC(=O)[C@H](CC(N)=O)NC(=O)[C@H](CCC(=O)O)NC(=O)[C@@H](Cc1ccc(O)cc1)NC(=O)CN(CCN(CCN(CC(=O)O)CC(=O)O)CC(=O)O)CC(=O)O)C1CCN(C(=N)N)CC1)C(=O)N[C@@H](CC1CCCCC1)C(=O)O
notes: also called Compound XIV
B4: DTPA-DTyr-Glu-Asn-Lys-Pro-Gly(PipAm)-Arg-Pro-Tyr-tBuGly-Leu-OH (peptide)
peptide: {DTPA}-[dY]ENKP[Gly(1-amidinopiperidin-4-yl)]RPY[Tle]L-OH
SMILES: CC(C)C[C@H](NC(=O)[C@@H](NC(=O)[C@H](Cc1ccc(O)cc1)NC(=O)[C@@H]1CCCN1C(=O)[C@H](CCCNC(=N)N)NC(=O)[C@@H](NC(=O)[C@@H]1CCCN1C(=O)[C@H](CCCCN)NC(=O)[C@H](CC(N)=O)NC(=O)[C@H](CCC(=O)O)NC(=O)[C@@H](Cc1ccc(O)cc1)NC(=O)CN(CCN(CCN(CC(=O)O)CC(=O)O)CC(=O)O)CC(=O)O)C1CCN(C(=N)N)CC1)C(C)(C)C)C(=O)O
notes: also called Compound XIII
B5: DTPA-DLys-Pro-Gly(PipAm)-Arg-Pro-Tyr-Chg-Leu-OH (peptide)
peptide: {DTPA}-[dK]P[Gly(1-amidinopiperidin-4-yl)]RPY[Chg]L-OH
B6: DTPA-DLys-Pro-Arg-Aba(Apy)-Pro-Tyr-Ile-Leu-OH (peptide)
peptide: {DTPA}-[dK]PR[Aba(Apy)]PYIL-OH
modifications: reading uncertain
B7: DTPA-DLys-Pro-Gly(PipAm)-Arg-Pro-Tyr-tBuGly-Leu-OH (peptide)
peptide: {DTPA}-[dK]P[Gly(1-amidinopiperidin-4-yl)]RPY[Tle]L-OH
notes: also called Compound X
B8: DTPA-DLys-Pro-Gly(PipAm)-Arg-AzeCA-Tyr-tBuGly-Leu-OH (peptide)
peptide: {DTPA}-[dK]P[Gly(1-amidinopiperidin-4-yl)]R[AzeCA]Y[Tle]L-OH
B9: DTPA-DLys-Pro-Gly(PipAm)-Arg-Pro-Tyr-tBuGly-Cha-OH (peptide)
peptide: {DTPA}-[dK]P[Gly(1-amidinopiperidin-4-yl)]RPY[Tle][Cha]-OH
SMILES: CC(C)(C)[C@H](NC(=O)[C@H](Cc1ccc(O)cc1)NC(=O)[C@@H]1CCCN1C(=O)[C@H](CCCNC(=N)N)NC(=O)[C@@H](NC(=O)[C@@H]1CCCN1C(=O)[C@@H](CCCCN)NC(=O)CN(CCN(CCN(CC(=O)O)CC(=O)O)CC(=O)O)CC(=O)O)C1CCN(C(=N)N)CC1)C(=O)N[C@@H](CC1CCCCC1)C(=O)O
B10: DTPA-DTyr-Glu-Asn-Lys-Pro-Gly(PipAm)-Arg-Pro-Tyr-tBuGly-tBuAla-OH (peptide)
peptide: {DTPA}-[dY]ENKP[Gly(1-amidinopiperidin-4-yl)]RPY[Tle][tBuAla]-OH
SMILES: CC(C)(C)C[C@H](NC(=O)[C@@H](NC(=O)[C@H](Cc1ccc(O)cc1)NC(=O)[C@@H]1CCCN1C(=O)[C@H](CCCNC(=N)N)NC(=O)[C@@H](NC(=O)[C@@H]1CCCN1C(=O)[C@H](CCCCN)NC(=O)[C@H](CC(N)=O)NC(=O)[C@H](CCC(=O)O)NC(=O)[C@@H](Cc1ccc(O)cc1)NC(=O)CN(CCN(CCN(CC(=O)O)CC(=O)O)CC(=O)O)CC(=O)O)C1CCN(C(=N)N)CC1)C(C)(C)C)C(=O)O
notes: also called Compound XV
B11: DTPA-DLys-Pro-Gly(PipAm)-Arg-Pro-Tyr-tBuGly-Cpa-OH (peptide)
peptide: {DTPA}-[dK]P[Gly(1-amidinopiperidin-4-yl)]RPY[Tle][Ala(cPr)]-OH
SMILES: CC(C)(C)[C@H](NC(=O)[C@H](Cc1ccc(O)cc1)NC(=O)[C@@H]1CCCN1C(=O)[C@H](CCCNC(=N)N)NC(=O)[C@@H](NC(=O)[C@@H]1CCCN1C(=O)[C@@H](CCCCN)NC(=O)CN(CCN(CCN(CC(=O)O)CC(=O)O)CC(=O)O)CC(=O)O)C1CCN(C(=N)N)CC1)C(=O)N[C@@H](CC1CC1)C(=O)O
B12: DTPA-PipGly-Pro-Gly(PipAm)-Arg-Pro-Tyr-tBuGly-Leu-OH (peptide)
peptide: {DTPA}-[PipGly]P[Gly(1-amidinopiperidin-4-yl)]RPY[Tle]L-OH
B13: DTPA-DLys-Pro-Gly(PipAm)-Arg-Pro-DTyr-tBuGly-Leu-OH (peptide)
peptide: {DTPA}-[dK]P[Gly(1-amidinopiperidin-4-yl)]RP[dY][Tle]L-OH
B14: DTPA-trans-Cha(4-CH2NH2)-Pro-Gly(PipAm)-Arg-Pro-Tyr-tBuGly-Leu-OH (peptide)
peptide: {DTPA}-[trans‑Cha(4-CH2NH2)]P[Gly(1-amidinopiperidin-4-yl)]RPY[Tle]L-OH
SMILES: CC(C)C[C@H](NC(=O)[C@@H](NC(=O)[C@H](Cc1ccc(O)cc1)NC(=O)[C@@H]1CCCN1C(=O)[C@H](CCCNC(=N)N)NC(=O)[C@@H](NC(=O)[C@@H]1CCCN1C(=O)[C@H](C[C@H]1CC[C@H](CN)CC1)NC(=O)CN(CCN(CCN(CC(=O)O)CC(=O)O)CC(=O)O)CC(=O)O)C1CCN(C(=N)N)CC1)C(C)(C)C)C(=O)O
B15: DTPA-DLys-Pro-Gly(PipAm)-Arg-Pro-Tyr-tBuGly-Leu-HA (peptide)
peptide: {DTPA}-[dK]P[Gly(1-amidinopiperidin-4-yl)]RPY[Tle]L-{NHOH}
B16: DTPA-DLys-Pro-Arg-(4-Gu)Phe-Pro-Tyr-Ile-Leu-OH (peptide)
peptide: KPRXPYIL
modifications: N-terminal DTPA; D-Lys at 1; (4-Gu)Phe [Phe(4-guanyl)] at 4 (X)
notes: also called DTPA-DLys-Pro-Arg-Phe(4-guanyl)-Pro-Tyr-Ile-Leu-OH
B17: DTPA-DLys-Pro-homoAla(PipAm)-Arg-Pro-Tyr-tBuGly-Leu-OH (peptide)
peptide: {DTPA}-[dK]P[homoAla(PipAm)]RPY[Tle]L-OH
B18: DTPA-DLys-Pro-Aba(Apy)-Arg-Pro-Tyr-Ile-Leu-OH (peptide)
peptide: {DTPA}-[dK]P[Aba(Apy)]RPYIL-OH
modifications: reading uncertain
notes: also called Compound III
B19: DTPA-DLys-Pro-(4-Gu)Phe-(4-Gu)Phe-Pro-Tyr-Ile-Leu-OH (peptide)
peptide: {DTPA}-[dK]P[Phe(4-guanidino)][Phe(4-guanidino)]PYIL-OH
SMILES: CC[C@H](C)[C@H](NC(=O)[C@H](Cc1ccc(O)cc1)NC(=O)[C@@H]1CCCN1C(=O)[C@H](Cc1ccc(NC(=N)N)cc1)NC(=O)[C@H](Cc1ccc(NC(=N)N)cc1)NC(=O)[C@@H]1CCCN1C(=O)[C@@H](CCCCN)NC(=O)CN(CCN(CCN(CC(=O)O)CC(=O)O)CC(=O)O)CC(=O)O)C(=O)N[C@@H](CC(C)C)C(=O)O
notes: also called DTPA-DLys-Pro-Phe(4-guanyl)-Phe(4-guanyl)-Pro-Tyr-Ile-Leu-OH
B20: DTPA-DLys-Pro-Gly(PipAm)-Arg-Pro-mTyr-tBuGly-Leu-OH (peptide)
peptide: {DTPA}-[dK]P[Gly(1-amidinopiperidin-4-yl)]RP[mTyr][Tle]L-OH
B21: DTPA-DLys-Pro-Gly(PipAm)-PipGly-Pro-Tyr-tBuGly-Leu-OH (peptide)
peptide: {DTPA}-[dK]P[Gly(1-amidinopiperidin-4-yl)][PipGly]PY[Tle]L-OH
B22: DTPA-DLys-Pro-Ala(PipAm)-Arg-Pro-Tyr-tBuGly-Leu-OH (peptide)
peptide: {DTPA}-[dK]P[Ala(PipAm)]RPY[Tle]L-OH
B23: DTPA-DLys-Pro-Gly(PipAm)-Arg-Pro-Tyr-Ile-Leu-OH (peptide)
peptide: KPXRPYIL
modifications: N-terminal DTPA; D-Lys at 1; Gly(PipAm) ((N-amidinopiperidinyl)glycine) at 3 (X)
notes: also called Compound II
B24: DTPA-DLys-Pro-Gly(PipAm)-Arg-Pro-(2,6-diMe)Tyr-tBuGly-Leu-OH (peptide)
peptide: {DTPA}-[dK]P[Gly(1-amidinopiperidin-4-yl)]RP[Dmt][Tle]L-OH
B25: DTPA-DLys-AzeCA-Gly(PipAm)-Arg-Pro-Tyr-tBuGly-Leu-OH (peptide)
peptide: {DTPA}-[dK][AzeCA][Gly(1-amidinopiperidin-4-yl)]RPY[Tle]L-OH
B26: DTPA-DLys-Pro-(4-Gu)Phe-Arg-Pro-Tyr-tBuGly-Leu-OH (peptide)
peptide: {DTPA}-[dK]P[Phe(4-guanidino)]RPY[Tle]L-OH
notes: also called Compound IX; DTPA-DLys-Pro-Phe(4-guanyl)-Arg-Pro-Tyr-tBuGly-Leu-OH

Key:
Experiment in all cases: competitive binding vs radioiodinated native neurotensin, human tumor sections
[1] = biological target: neurotensin receptors (frozen tissue sections from receptor-positive human tumors) (human) (UniProt P30989)
[2] = biological target: T1, neurotensin receptors (frozen tissue sections from receptor-positive human tumors) (human, UniProt P30989 1-418)
T1 construct: whole, on cells
Excerpt: (§1) Frozen tissue sections from receptor-positive human tumors were used in a competitive binding assay.

[3] = biological target: T1, neurotensin receptors (frozen tissue …); remark: listed apart in the source
Excerpt: as §1

[4] = biological target: T1, neurotensin receptors (frozen tissue …); remark: listed apart in the source
Excerpt: as §1

neurotensin receptors (frozen tissue sections from receptor-positive human tumors) (human), sequence (P30989 whole entry): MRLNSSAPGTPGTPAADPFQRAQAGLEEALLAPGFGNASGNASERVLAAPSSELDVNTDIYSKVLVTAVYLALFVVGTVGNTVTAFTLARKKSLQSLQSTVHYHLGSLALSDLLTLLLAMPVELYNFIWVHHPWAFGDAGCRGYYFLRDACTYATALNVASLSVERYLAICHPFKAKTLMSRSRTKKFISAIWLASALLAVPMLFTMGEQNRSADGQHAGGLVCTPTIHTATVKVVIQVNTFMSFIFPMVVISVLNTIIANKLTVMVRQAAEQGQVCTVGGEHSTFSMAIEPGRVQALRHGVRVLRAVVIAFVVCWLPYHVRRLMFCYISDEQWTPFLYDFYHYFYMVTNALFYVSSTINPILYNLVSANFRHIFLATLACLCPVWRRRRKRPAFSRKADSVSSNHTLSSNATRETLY
T1 sequence (P30989 whole entry): as above

Molecule	Kd [1]	Kd [3]	also measured
DTPA-DLys-Pro-Aba(Apy)-Aba(Apy)-Pro-Tyr-Ile-Leu-OH (peptide)	> 10000 nM	–	–
B1	–	8.6 nM	Kd [2]: 8.6 nM; Kd [4]: 8.6 nM
B2	7.3 nM	–	–
B3	–	4.5 nM	–
B4	–	4.5 nM	–
B5	–	25 nM	–
B6	–	1200 nM	Kd [4]: 1200 nM
B7	–	3.5 nM	IC50 [4]: 3.5 nM
B8	740 nM	–	–
B9	12 nM	–	–
B10	–	3.5 nM	–
B11	290 nM	–	–
B12	3.9 nM	–	–
B13	–	6.4 nM	–
B14	5 nM	–	–
B15	–	49 nM	–
B16	–	83 nM	Kd [4]: 83 nM
B17	–	14 nM	–
B18	–	68 nM	Kd [2]: 68 nM; Kd [4]: 68 nM
B19	–	175 nM	Kd [4]: 175 nM
B20	300 nM	–	–
B21	140 nM	–	–
B22	–	14 nM	–
B23	–	2.7 nM	Kd [2]: 2.7 nM; Kd [4]: 2.7 nM
B24	45 nM	–	–
B25	24 nM	–	–
B26	–	12.5 nM	IC50 [4]: 12.5 nM

Reference: patent US20050191240A1 (BIOSYNTHEMA, published 2005)
